Laboratory results from patent publication US11278600B2, “Human alpha-galactosidase variants” (Codexis, Inc., priority 2014, dated 2022).
Residue numbers refer to the chain shown, from its start.

B1: 207 (protein)
chain: LDNGLARTPTMGWLHWERFMCNLDCQEEPDSCISEKLFMEMAELMVSEGWKDAGYEYLCIDDCWMAPQRDSEGRLQADPQRFPHGIRQLANYVHSKGLKLGIYADVGNKTCAGFPGSFGYYDIDAQTFADWGVDLLKFDGCYCDSLENLADGYKHMSLALNRTGRSIVYSCEWPLYMWPFQKPNYTEIRQYCNHWRNFADIDDSWASIKSILDWTSFNQERIVDVAGPGGWNDPDMLVIGNFGLSWNQQVTQMALWAIMAAPLFMSNDLRHISPQAKALLQDKDVIAINQDPLGKQGYQLRQGDNFEVWERPLSGLAWAVAMINRQEIGGPRSYTIAVASLGKGVACNPACFITQLLPVKRKLGFYNWTSRLKSHINPTGTVLLQLENTMQMSKDLLL
modifications: Synthetic Polypeptide sequence of Variant No. 207 of mature Human GLA
B2: 221 (protein)
chain: B1 chain with N367E, K373R, M390I
modifications: Synthetic Polypeptide sequence of Variant No. 221 of mature Human GLA
B3: 222 (protein)
chain: B1 chain with P228Q, N367E, T369D, K373R
modifications: Synthetic Polypeptide sequence of Variant No. 222 of mature Human GLA
B4: 212 (protein)
chain: B1 chain with F365L, I376V
modifications: Synthetic Polypeptide sequence of Variant No. 212 of mature Human GLA
B5: 208 (protein)
chain: B1 chain with I376V
modifications: Synthetic Polypeptide sequence of Variant No. 208 of mature Human GLA
B6: 220 (protein)
chain: B1 chain with M322V, N367E, I376V
modifications: Synthetic Polypeptide sequence of Variant No. 220 of mature Human GLA
B7: 209 (protein)
chain: B1 chain with N367P, T369D, K373R
modifications: Synthetic Polypeptide sequence of Variant No. 209 of mature Human GLA
B8: 215 (protein)
chain: B1 chain with K343G, N367E, K373R
modifications: Synthetic Polypeptide sequence of Variant No. 215 of mature Human GLA
B9: 218 (protein)
chain: B1 chain with M322I, K394L, D395K, L396D
modifications: Synthetic Polypeptide sequence of Variant No. 218
B10: 210 (protein)
chain: B1 chain with F365L, K373R
modifications: Synthetic Polypeptide sequence of Variant No. 210 of mature Human GLA
B11: 214 (protein)
chain: B1 chain with K343D, F365L, K373R
modifications: Synthetic Polypeptide sequence of Variant No. 214 of mature Human GLA
B12: 216 (protein)
chain: B1 chain with K343G, F365L
modifications: Synthetic Polypeptide sequence of Variant No. 216 of mature Human GLA
B13: 223 (protein)
chain: B1 chain with Q302K, A337P, A350G, K362Q, N367E, K373R
modifications: Synthetic Polypeptide sequence of Variant No. 223 of mature Human GLA
B14: 213 (protein)
chain: B1 chain with H15Q, N367E, K373R
modifications: Synthetic Polypeptide sequence of Variant No. 213 of mature Human GLA
B15: 219 (protein)
chain: B1 chain with M322I, N367E
modifications: Synthetic Polypeptide sequence of Variant No. 219 of mature Human GLA
B16: 211 (protein)
chain: B1 chain with F365L, K373R, I376V
modifications: Synthetic Polypeptide sequence of Variant No. 211 of mature Human GLA

Columns and labels:
Format in all cases: biochemical
[1] = HTP-analysis of supernatants pretreated with base (MUGal hydrolysis); conditions: challenge at pH 7.6; activity of the variant/activity of Rd2BB (SEQ ID NO: 10); yeast supernatant
Method in brief: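 Supernatants from INVSc1 yeast expressing GLA variants (SD-Ura, 66-84 h, 30° C) were mixed with McIlvaine buffer pH 7.0-8.2 or 200 mM sodium bicarbonate pH 9.1-9.7 and held 1-18 h at 37° C. Residual activity was then measured on MUGal at pH 4.8/4.3, 37° C, 30-180 min, by fluorescence (Ex 355/Em 448 nm).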

[2] = HTP-analysis of yeast culture supernatants, no challenge (MUGal hydrolysis); conditions: activity of the variant/activity of Rd2BB (SEQ ID NO: 10), yeast supernatant
Method in brief: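 GLA variants were expressed in INVSc1 yeast grown in SD-Ura broth with glucose at 30° C., and culture supernatants were collected after 66-84 h. Supernatant was mixed with McIlvaine buffer pH 4.8 and MUGal (2 mM stock) in 50 mM citrate, 200 mM KCl, pH 4.6, incubated at 37° C. for 30-180 minutes, then quenched with sodium carbonate.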

[3] = HTP-analysis of supernatants pretreated with acid (MUGal hydrolysis); conditions: challenge at pH 4.2; activity of the variant/activity of Rd2BB (SEQ ID NO: 10); yeast supernatant
Method in brief: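 Fluorescence of MUGal hydrolysis (Ex. 355 nm, Em. 448 nm) is read after sodium carbonate quench. The enzyme source is INVSc1 yeast culture supernatant, first exposed to pH 3.3-4.3 McIlvaine buffer at 37° C. for 1-3 h, then reacted at pH 4.8 for 30-180 minutes.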

Row | Molecule | Relative Activity of GLA Variants After Challenge at pH 7.6 [1] | Relative Activity of GLA Variants After No Challenge (NC) [2] | Relative Activity of GLA Variants After Challenge at pH 4.2 [3]
1 | B1 | +++ (+++ = >2.5 relative activity over Rd2BB (SEQ ID NO: 10)) | ++ (++ = 1.5 to 2.5 relative activity over Rd2BB (SEQ ID NO: 10)) | +++ (+++ = >2.5 relative activity over Rd2BB (SEQ ID NO: 10))
2 | B2 | + (+ = 0.5 to 1.5 relative activity over Rd2BB (SEQ ID NO: 10)) | + (+ = 0.5 to 1.5 relative activity over Rd2BB (SEQ ID NO: 10)) | + (+ = 0.5 to 1.5 relative activity over Rd2BB (SEQ ID NO: 10))
3 | B3 | + (+ = 0.5 to 1.5 relative activity over Rd2BB (SEQ ID NO: 10)) | ++ (++ = 1.5 to 2.5 relative activity over Rd2BB (SEQ ID NO: 10)) | ++ (++ = 1.5 to 2.5 relative activity over Rd2BB (SEQ ID NO: 10))
4 | B4 | ++ (++ = 1.5 to 2.5 relative activity over Rd2BB (SEQ ID NO: 10)) | ++ (++ = 1.5 to 2.5 relative activity over Rd2BB (SEQ ID NO: 10)) | ++ (++ = 1.5 to 2.5 relative activity over Rd2BB (SEQ ID NO: 10))
5 | B5 | +++ (+++ = >2.5 relative activity over Rd2BB (SEQ ID NO: 10)) | ++ (++ = 1.5 to 2.5 relative activity over Rd2BB (SEQ ID NO: 10)) | +++ (+++ = >2.5 relative activity over Rd2BB (SEQ ID NO: 10))
6 | B6 | ++ (++ = 1.5 to 2.5 relative activity over Rd2BB (SEQ ID NO: 10)) | + (+ = 0.5 to 1.5 relative activity over Rd2BB (SEQ ID NO: 10)) | + (+ = 0.5 to 1.5 relative activity over Rd2BB (SEQ ID NO: 10))
7 | B7 | + (+ = 0.5 to 1.5 relative activity over Rd2BB (SEQ ID NO: 10)) | + (+ = 0.5 to 1.5 relative activity over Rd2BB (SEQ ID NO: 10)) | + (+ = 0.5 to 1.5 relative activity over Rd2BB (SEQ ID NO: 10))
8 | B8 | + (+ = 0.5 to 1.5 relative activity over Rd2BB (SEQ ID NO: 10)) | + (+ = 0.5 to 1.5 relative activity over Rd2BB (SEQ ID NO: 10)) | + (+ = 0.5 to 1.5 relative activity over Rd2BB (SEQ ID NO: 10))
9 | B9 | +++ (+++ = >2.5 relative activity over Rd2BB (SEQ ID NO: 10)) | +++ (+++ = >2.5 relative activity over Rd2BB (SEQ ID NO: 10)) | +++ (+++ = >2.5 relative activity over Rd2BB (SEQ ID NO: 10))
10 | B10 | ++ (++ = 1.5 to 2.5 relative activity over Rd2BB (SEQ ID NO: 10)) | ++ (++ = 1.5 to 2.5 relative activity over Rd2BB (SEQ ID NO: 10)) | ++ (++ = 1.5 to 2.5 relative activity over Rd2BB (SEQ ID NO: 10))
11 | B11 | +++ (+++ = >2.5 relative activity over Rd2BB (SEQ ID NO: 10)) | +++ (+++ = >2.5 relative activity over Rd2BB (SEQ ID NO: 10)) | +++ (+++ = >2.5 relative activity over Rd2BB (SEQ ID NO: 10))
12 | B12 | +++ (+++ = >2.5 relative activity over Rd2BB (SEQ ID NO: 10)) | ++ (++ = 1.5 to 2.5 relative activity over Rd2BB (SEQ ID NO: 10)) | +++ (+++ = >2.5 relative activity over Rd2BB (SEQ ID NO: 10))
13 | B13 | ++ (++ = 1.5 to 2.5 relative activity over Rd2BB (SEQ ID NO: 10)) | + (+ = 0.5 to 1.5 relative activity over Rd2BB (SEQ ID NO: 10)) | ++ (++ = 1.5 to 2.5 relative activity over Rd2BB (SEQ ID NO: 10))
14 | B14 | − (− = <0.5 relative activity over Rd2BB (SEQ ID NO: 10)) | + (+ = 0.5 to 1.5 relative activity over Rd2BB (SEQ ID NO: 10)) | − (− = <0.5 relative activity over Rd2BB (SEQ ID NO: 10))
15 | B15 | + (+ = 0.5 to 1.5 relative activity over Rd2BB (SEQ ID NO: 10)) | + (+ = 0.5 to 1.5 relative activity over Rd2BB (SEQ ID NO: 10)) | + (+ = 0.5 to 1.5 relative activity over Rd2BB (SEQ ID NO: 10))
16 | B16 | ++ (++ = 1.5 to 2.5 relative activity over Rd2BB (SEQ ID NO: 10)) | ++ (++ = 1.5 to 2.5 relative activity over Rd2BB (SEQ ID NO: 10)) | ++ (++ = 1.5 to 2.5 relative activity over Rd2BB (SEQ ID NO: 10))
